In patent publication US10941182 (Amgen, dated 2021):
Starred links: 1 amine or outer side, 2 acyl side, 3 side chain; linkers in the order of their positions; H or OH if unused. Non-standard residues stand in square brackets, D forms with d. Primed or numbered codes have the meaning given here. *: point of attachment. AC4Abu = α-carboxy-4-aminobutyric acid, O=C(C(CCN[*:1])C(=O)[*:3])[*:2]; Oic = O=C(O)[C@@H]1C[C@@H]2CCCC[C@@H]2N1; Phe(4-Cl) = N[C@@H](Cc1ccc(Cl)cc1)C(=O)O; γGlu = O=C(O)[C@H](CCC(=O)[*:2])N[*:1]; NMeR = CN[C@@H](CCCNC(=N)N)C(=O)O; Tridecanoyl = CCCCCCCCCCCCC(=O)*; hArg = N=C(N)NCCCC[C@H](N)C(=O)O; Cha = N[C@@H](CC1CCCCC1)C(=O)O; αMeL = CC(C)C[C@](C)(N)C(=O)O; αMeP = C[C@@]1(C(=O)O)CCCN1; β3hP = O=C(O)C[C@@H]1CCCN1; Nle = CCCC[C@H](N)C(=O)O; Pip′ = not defined here; AEEA = NCCOCCOCC(=O)O; Aib = CC(C)(N)C(=O)O; BLeu = β-leucine

T1: human APJ receptor (human, UniProt P35414 1-380)
T1 sequence (looked up): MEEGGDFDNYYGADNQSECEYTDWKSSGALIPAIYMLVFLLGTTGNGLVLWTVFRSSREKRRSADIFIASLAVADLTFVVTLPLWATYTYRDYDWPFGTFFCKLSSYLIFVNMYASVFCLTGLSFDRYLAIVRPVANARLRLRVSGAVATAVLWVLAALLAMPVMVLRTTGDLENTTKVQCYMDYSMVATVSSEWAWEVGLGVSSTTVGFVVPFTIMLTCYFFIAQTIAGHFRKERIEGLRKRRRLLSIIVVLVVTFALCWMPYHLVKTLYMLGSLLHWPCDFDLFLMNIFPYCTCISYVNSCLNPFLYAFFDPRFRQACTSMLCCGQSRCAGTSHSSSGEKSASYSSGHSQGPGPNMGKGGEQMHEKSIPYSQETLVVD

T2: rat APJ receptor (rat, UniProt Q9JHG3 1-377)
T2 sequence (looked up): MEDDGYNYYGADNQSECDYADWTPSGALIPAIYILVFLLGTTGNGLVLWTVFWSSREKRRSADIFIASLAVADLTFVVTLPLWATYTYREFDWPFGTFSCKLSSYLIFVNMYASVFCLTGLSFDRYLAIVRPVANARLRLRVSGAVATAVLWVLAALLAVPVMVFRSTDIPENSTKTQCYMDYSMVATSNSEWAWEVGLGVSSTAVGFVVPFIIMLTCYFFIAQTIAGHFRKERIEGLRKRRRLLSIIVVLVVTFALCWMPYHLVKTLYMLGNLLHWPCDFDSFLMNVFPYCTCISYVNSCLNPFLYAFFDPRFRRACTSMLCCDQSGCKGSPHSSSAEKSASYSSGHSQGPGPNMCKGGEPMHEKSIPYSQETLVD


Assays:
[1] = molecular target: T1, human APJ receptor; assay: cell-based or functional assay
[2] = molecular target: T2, rat APJ receptor; assay: cell-based or functional assay

Binder | EC50 Human APJ Receptor (GTPγS assay) [1] [nM] | EC50 Rat APJ Receptor (GTPγS assay) [2] [nM]
Tridecanoyl-[γGlu][AEEA][AEEA][dQ]R[αMeP][hArg][BLeu]SHKG[Oic][Nle][Aib][Phe(4-Cl)]-OH [Apelin polypeptide SEQ ID NO: 505] | 0.0707 | 0.516
Tridecanoyl-[AC4Abu][AEEA][AEEA]QR[αMeP][hArg][BLeu]SHKG[Oic][Nle]P[Phe(4-Cl)]-OH [Apelin polypeptide SEQ ID NO: 392] | 0.584 | 0.856
Tridecanoyl-[γGlu][AEEA][AEEA][dQ]R[β3hP][NMeR][Cha]SHKG[Oic][Nle][Aib][Phe(4-Cl)]-OH (SMILES CCCCCCCCCCCCC(=O)N[C@@H](CCC(=O)NCCOCCOCC(=O)NCCOCCOCC(=O)N[C@H](CCC(N)=O)C(=O)N[C@@H](CCCNC(=N)N)C(=O)N1CCC[C@H]1CC(=O)N(C)[C@@H](CCCNC(=N)N)C(=O)N[C@@H](CC1CCCCC1)C(=O)N[C@@H](CO)C(=O)N[C@@H](Cc1c[nH]cn1)C(=O)N[C@@H](CCCCN)C(=O)NCC(=O)N1[C@H](C(=O)N[C@@H](CCCC)C(=O)NC(C)(C)C(=O)N[C@@H](Cc2ccc(Cl)cc2)C(=O)O)C[C@@H]2CCCC[C@@H]21)C(=O)O) [Apelin polypeptide SEQ ID NO: 516] | 0.557 | 2.02
XXXQRPRLSHKGPXPF ({TDA}[AC4Abu][Aeea][Aeea]qR[aMePro][hArg][BLeu]SHKG[aMePro][Nle][aMePro][4-Cl-F]{COOH}) [Apelin polypeptide SEQ ID NO: 504] | 1.39 | 23.1
Tridecanoyl-[γGlu][AEEA][AEEA]QEP[NMeR]LSHKGP[Nle]P[Phe(4-Cl)]-OH (SMILES CCCCCCCCCCCCC(=O)N[C@@H](CCC(=O)NCCOCCOCC(=O)NCCOCCOCC(=O)N[C@@H](CCC(N)=O)C(=O)N[C@@H](CCC(=O)O)C(=O)N1CCC[C@H]1C(=O)N(C)[C@@H](CCCNC(=N)N)C(=O)N[C@@H](CC(C)C)C(=O)N[C@@H](CO)C(=O)N[C@@H](Cc1c[nH]cn1)C(=O)N[C@@H](CCCCN)C(=O)NCC(=O)N1CCC[C@H]1C(=O)N[C@@H](CCCC)C(=O)N1CCC[C@H]1C(=O)N[C@@H](Cc1ccc(Cl)cc1)C(=O)O)C(=O)O) [Apelin polypeptide SEQ ID NO: 475] | 10.3 | 35.9
Tridecanoyl-[γGlu][AEEA][AEEA][dQ]R[αMeP][hArg][BLeu]SHKG[Pip′][Nle][Phe(4-Cl)]-OH [Apelin polypeptide SEQ ID NO: 501] | 10.9 | 68.2
Tridecanoyl-[AC4Abu][AEEA][AEEA]QR[NMeR][αMeL]SHKG[Oic][Nle]P[Phe(4-Cl)]-OH (SMILES CCCCCCCCCCCCC(=O)NCCC(C(=O)O)C(=O)NCCOCCOCC(=O)NCCOCCOCC(=O)N[C@@H](CCC(N)=O)C(=O)N[C@@H](CCCNC(=N)N)C(=O)N(C)[C@@H](CCCNC(=N)N)C(=O)N[C@@](C)(CC(C)C)C(=O)N[C@@H](CO)C(=O)N[C@@H](Cc1c[nH]cn1)C(=O)N[C@@H](CCCCN)C(=O)NCC(=O)N1[C@H](C(=O)N[C@@H](CCCC)C(=O)N2CCC[C@H]2C(=O)N[C@@H](Cc2ccc(Cl)cc2)C(=O)O)C[C@@H]2CCCC[C@@H]21) [Apelin polypeptide SEQ ID NO: 396] | 0.977 | 1.14
Tridecanoyl-[γGlu][AEEA][AEEA][dQ]R[αMeP][hArg][BLeu]SHKG[Oic][Nle][Phe(4-Cl)]-OH [Apelin polypeptide SEQ ID NO: 519] | 9.74 | 44.7
XXXQRPRLSHKGXXPF ({TDA}[AC4Abu][Aeea][Aeea]qR[aMePro][hArg][BLeu]SHKG[Pip][Nle][aMePro][4-Cl-F]{COOH}) [Apelin polypeptide SEQ ID NO: 503] | 0.16 | 2.12
Tridecanoyl-[γGlu][AEEA][AEEA][dQ]R[αMeP][hArg][BLeu]SHKG[Oic][Nle][αMeP][Phe(4-Cl)]-OH [Apelin polypeptide SEQ ID NO: 502] | 0.456 | 4.81
Tridecanoyl-[γGlu][AEEA][AEEA]QP[NMeR][Cha]SHKG[Oic][Nle][Aib][Phe(4-Cl)]-OH (SMILES CCCCCCCCCCCCC(=O)N[C@@H](CCC(=O)NCCOCCOCC(=O)NCCOCCOCC(=O)N[C@@H](CCC(N)=O)C(=O)N1CCC[C@H]1C(=O)N(C)[C@@H](CCCNC(=N)N)C(=O)N[C@@H](CC1CCCCC1)C(=O)N[C@@H](CO)C(=O)N[C@@H](Cc1c[nH]cn1)C(=O)N[C@@H](CCCCN)C(=O)NCC(=O)N1[C@H](C(=O)N[C@@H](CCCC)C(=O)NC(C)(C)C(=O)N[C@@H](Cc2ccc(Cl)cc2)C(=O)O)C[C@@H]2CCCC[C@@H]21)C(=O)O) [Apelin polypeptide SEQ ID NO: 520] | 9.18 | 56.1
Tridecanoyl-[γGlu][AEEA][AEEA]QR[NMeR][BLeu]SHKG[Oic][Nle]P[Phe(4-Cl)]-OH [Apelin polypeptide SEQ ID NO: 447] | 9.66 | 14.8

Results, then the binder that gave them:

EC50 Human APJ Receptor (GTPγS assay) [1] [nM] | EC50 Rat APJ Receptor (GTPγS assay) [2] [nM] | Binder
53.2 | 346 | Tridecanoyl-[γGlu][AEEA][AEEA][dQ]EP[NMeR][Cha]SHKG[Oic][Nle][Aib][Phe(4-Cl)]-OH (SMILES CCCCCCCCCCCCC(=O)N[C@@H](CCC(=O)NCCOCCOCC(=O)NCCOCCOCC(=O)N[C@H](CCC(N)=O)C(=O)N[C@@H](CCC(=O)O)C(=O)N1CCC[C@H]1C(=O)N(C)[C@@H](CCCNC(=N)N)C(=O)N[C@@H](CC1CCCCC1)C(=O)N[C@@H](CO)C(=O)N[C@@H](Cc1c[nH]cn1)C(=O)N[C@@H](CCCCN)C(=O)NCC(=O)N1[C@H](C(=O)N[C@@H](CCCC)C(=O)NC(C)(C)C(=O)N[C@@H](Cc2ccc(Cl)cc2)C(=O)O)C[C@@H]2CCCC[C@@H]21)C(=O)O) [Apelin polypeptide SEQ ID NO: 524]
2.23 | 2.01 | Tridecanoyl-[γGlu][AEEA][AEEA][dQ]R[β3hP][NMeR][αMeL]SHKG[Oic][Nle][αMeP][Phe(4-Cl)]-OH (SMILES CCCCCCCCCCCCC(=O)N[C@@H](CCC(=O)NCCOCCOCC(=O)NCCOCCOCC(=O)N[C@H](CCC(N)=O)C(=O)N[C@@H](CCCNC(=N)N)C(=O)N1CCC[C@H]1CC(=O)N(C)[C@@H](CCCNC(=N)N)C(=O)N[C@@](C)(CC(C)C)C(=O)N[C@@H](CO)C(=O)N[C@@H](Cc1c[nH]cn1)C(=O)N[C@@H](CCCCN)C(=O)NCC(=O)N1[C@H](C(=O)N[C@@H](CCCC)C(=O)N2CCC[C@@]2(C)C(=O)N[C@@H](Cc2ccc(Cl)cc2)C(=O)O)C[C@@H]2CCCC[C@@H]21)C(=O)O) [Apelin polypeptide SEQ ID NO: 553]
0.523 | 6.77 | Tridecanoyl-[γGlu][AEEA][AEEA][dQ]R[β3hP][hArg][BLeu]SHKG[Oic][Nle][Aib][Phe(4-Cl)]-OH [Apelin polypeptide SEQ ID NO: 522]
158 | 243 | Tridecanoyl-[γGlu][AEEA][AEEA][dQ][dE]P[NMeR][Cha]SHKG[Oic][Nle][Aib][Phe(4-Cl)]-OH (SMILES CCCCCCCCCCCCC(=O)N[C@@H](CCC(=O)NCCOCCOCC(=O)NCCOCCOCC(=O)N[C@H](CCC(N)=O)C(=O)N[C@H](CCC(=O)O)C(=O)N1CCC[C@H]1C(=O)N(C)[C@@H](CCCNC(=N)N)C(=O)N[C@@H](CC1CCCCC1)C(=O)N[C@@H](CO)C(=O)N[C@@H](Cc1c[nH]cn1)C(=O)N[C@@H](CCCCN)C(=O)NCC(=O)N1[C@H](C(=O)N[C@@H](CCCC)C(=O)NC(C)(C)C(=O)N[C@@H](Cc2ccc(Cl)cc2)C(=O)O)C[C@@H]2CCCC[C@@H]21)C(=O)O) [Apelin polypeptide SEQ ID NO: 525]
18 | 69.1 | Tridecanoyl-[γGlu][AEEA][AEEA][dQ]R[αMeP][hArg][BLeu]SHKG[Oic][Nle][β3hP][Phe(4-Cl)]-OH [Apelin polypeptide SEQ ID NO: 556]
25.6 | 71.9 | Tridecanoyl-[γGlu][AEEA][AEEA][dQ]R[αMeP][Nle][BLeu]SHKG[Oic][Nle][αMeP][Phe(4-Cl)]-OH [Apelin polypeptide SEQ ID NO: 523]
